T1: TRBC2 peptide (biotinylated) (human, also: biotinylated (site not given here))
T1 construct: In the monoclonal screen: biotinylated, 0.5 ug/ml on neutravidin-coated plates; In the polyclonal phage ELISA also presented as BSA or OA conjugate of the C-terminal-cysteine form; also called Bio-TRBC2; biotinylated TRBC2
T1 peptide: VLEDLKNVFPPEVAV

B1: CP_03_E05 (scFv, not shown: small tags and cut ends)
scFv: EVQLVESGGGVVQPGGSLRLSCAASGFTFSSYAMSWVRQAPGKGLEWVSAISGSGGSTYYADSVKGRFSISRDNSKNTLYLQMNSLRAEDTAVYYCARTRSSGAFDIWGQGTLVTVSSGGGGSGGGGSGGGASNFMLTQPHSVSESPGKTVTISCTRSSGSIASKYVQWYQQRPGSSPTTVIYEDNQRPSGVPDRFSGSIDTSSNSASLTISGLRTEDEADYYCHSYDSNNHSVFGGGTKVTVLGQPAA
notes: scFv from pSANG10-3F (His6, tri-FLAG), culture supernatant
B2: CP_03_H06 (scFv, not shown: small tags and cut ends)
scFv: QVQLVESGGGLVKPGGSLRLSCAASGFTFSDYYMSWIRQAPGKGLEWVSYISSSGSTIYYADSVEGRFTISRDNAKNSLYLQMNSLRTEDTAVYYCARARVGGMDVWGQGTMVTVSSGGGGSGGGGSGGGASNFMLTQPHSVSESPGKTVTISCTRSSGSIASNYVQWYQQRPGSSPTTVIYEDNQRPSGVPDRFSGSIDSSSNSASLTISGLKTEDEADYYCQSFDADNLHVVFGGGTKLTVLGQPAA
notes: as for B1
B3: CP_03_C12 (scFv, not shown: small tags and cut ends)
scFv: EVQLVQSGAEVKKPGASVKVSCKASGYTFTGYYMHWVRQAPGQGLEWMGWINPNSGGTNYAQKFQGRVTMTRDTSISTAYMELSSLRSEDTAVYYCARDTGPIDYWGQGTMVTVSSGGGGSGGGGSGGGASDIVMTQTPLSLSVTPGQPASISCKSSQSLLHSDGKTYLYWYLQKPGQPPQLLVYEVSNRFSGVPDKFSGSGSGTDFTLKISRVEAEDVGVYYCMQGIQLPPTFGGGTKVDIKRTAAA
notes: as for B1
B4: CP_03_D04 (scFv, not shown: small tags and cut ends)
scFv: EVQLVESGGGVVQPGRSLRLSCAASGFTFSSYAMHWVRQAPGKGLEWVAVISYDGSNKYYADSVKGRFTISRDNSKNTLYLQMNSLRAEDTAVYYCARGGFTVPGGAFDIWGQGTLVTVSSGGGGSGGGGSGGGASNFMLTQPHSVSDSPGKTVTISCTRSSGRIGSNFVQWYQQRPGSSPTTVIYEDDQRPSGVPARFSGSIDSSSNSASLTISGLTTADEAGYYCQSYDASNVIFGGGTKLTVLGQPAA
notes: as for B1
B5: CP_03_G09 (scFv, not shown: small tags and cut ends)
scFv: QVQLQQSGPGLVKPSQTLSLTCAISGDSVSSNSAAWNWIRQSPSRGLEWLGRTYYRSKWYNDYAVSVKSRITINPDTSKNQFSLQLNSVTPEDTAVYYCARDQWLANYYYYGMDVWGQGTLVTVSSGGGGSGGGGSGGGASSYELTQPLSVSVALGQTARITCGGNNIGSKNVHWYQQKPGQAPVLVIYRDNNRPSGIPERFSGSNSGNTATLTISKAQAGDEADYYCQVWDSNSWVFGGGTKLTVLGQPAA
notes: as for B1
B6: CP_03_G02 (scFv, not shown: small tags and cut ends)
scFv: EVQLVQSGAEVKKPGSSVKVSCKASGGTFSSYAISWVRQAPGQGLEWMGIINPSGGSTSYAQKFQGRVTMTRDTSTSIVYMELSSLRSEDTAVYYCARGVWNSGSYLGFDYWGQGTLVTVSSGGGGSGGGGSGGGASDIQMTQSPSSLSASVGDRVTITCQASQDISNYLNWYQQKPGKAPKLLIYAASSLQSGVPSRFSGSGSGTDFTLTISSLQPEDFATYYCQQSYSTPLTFGGGTKLEIKRTAAA
notes: as for B1
B7: CP_03_F10 (scFv, not shown: small tags and cut ends)
scFv: EVQLVESGAEVKKPGASVKVSCKASGYTFTGYYMHWVRQAPGQGLEWMGRINPNSGGTNYAQKFQGRVTMTRDTSISTAYMELSSLRSEDTAVYYCARFGERYAFDIWGQGTLVTVSSGGGGSGGGGSGGGASQSELTQPPSASGSPGQSVTISCTGTSTDVGAFHFVSWYQHTPGKAPKLLISEVRKRASGVPDRFSGSRSGNTASLTVSGLQSEDEADYFCSAYTGSNYVFGSGTKLTVLGQPAA
notes: as for B1
B8: CP_03_D05 (scFv, not shown: small tags and cut ends)
scFv: QVQLVESGAEVKKPGASVKVSCKASGYTFTGYYMHWVRQAPGQGLEWMGRINPNSGGTNYAQKFQGRVTMTRDTSISTAYMELSRLRSDDTAVYYCASPRGRGSAFDIWGQGTLVTVSSGGGGSGGGGSGGGASSYELTQPPSVSVSPGQTATISCSGDQLGGKYGHWYQKKPGQSPVLVLYQDRKRPAGIPERFSGSSSGNTITLTISGTQAVDEADYYCQAWDTNLGGVFGGGTKVTVLGQPAA
notes: as for B1

No end group written: not given here.

The target in this assay is T1, TRBC2 peptide (biotinylated). The assay is described as follows: TRF assay, scFv on biotin-peptide/neutravidin plate. As to the method: The scFv populations from round-2 and round-3 selection outputs were sub-cloned into the pSANG10-3F expression vector and transformed into E. coli BL21 (DE3) cells. 1128 individual transformants (564 clones/TRBC peptide) were picked into 12×96 well culture plates (94 clones/plate) and antibody expression was induced using autoinduction media. Recombinant monoclonal antibodies secreted into culture supernatant after overnight induction were tested for binding to biotinylated TRBC1 and TRBC2 immobilised on neutravidin coated Nunc Maxisorp™ 96 well plates.
Molecule B1 gave a TRBC2 binding of 217000 TRF units.
The result for B2 reads 168000 TRF units; that for B3, 167000 TRF units; that for B4, 143000 TRF units.
B5 gave a TRBC2 binding of 139000 TRF units.
The molecule B6 gave a TRBC2 binding of 152000 TRF units.
Next, B7: 140000 TRF units.
On to B8, for which the TRBC2 binding came out at 213000 TRF units.

Source of the values: US20250314655A1 (AUTOLUS, published 2025).
